From PMC4321167 (2015)

T1: GST-FD (Arabidopsis thaliana (Mouse-ear cress), UniProt Q84JK2)
T1 chain: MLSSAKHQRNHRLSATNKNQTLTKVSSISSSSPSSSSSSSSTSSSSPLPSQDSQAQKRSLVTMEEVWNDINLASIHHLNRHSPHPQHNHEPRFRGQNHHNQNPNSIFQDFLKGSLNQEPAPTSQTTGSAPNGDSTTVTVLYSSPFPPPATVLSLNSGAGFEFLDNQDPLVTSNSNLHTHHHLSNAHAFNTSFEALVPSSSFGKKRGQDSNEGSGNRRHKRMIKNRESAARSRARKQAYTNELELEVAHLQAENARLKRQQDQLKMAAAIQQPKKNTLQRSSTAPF


Molecular target: T1, GST-FD
Experiment: GST pull-down

| binding result | Binder |
| --- | --- |
| binds | Trx-His-CPK6 (protein) MGNSCRGSFKDKIYEGNHSRPEENSKSTTTTVSSVHSPTTDQDFSKQNTNPALVIPVKEPIMRRNVDNQSYYVLGHKTPNIRDLYTLSRKLGQGQFGTTYLCTDIATGVDYACKSISKRKLISKEDVEDVRREIQIMHHLAGHKNIVTIKGAYEDPLYVHIVMELCAGGELFDRIIHRGHYSERKAAELTKIIVGVVEACHSLGVMHRDLKPENFLLVNKDDDFSLKAIDFGLSVFFKPGQIFKDVVGSPYYVAPEVLLKHYGPEADVWTAGVILYILLSGVPPFWAETQQGIFDAVLKGYIDFDTDPWPVISDSAKDLIRKMLCSSPSERLTAHEVLRHPWICENGVAPDRALDPAVLSRLKQFSAMNKLKKMALKVIAESLSEEEIAGLRAMFEAMDTDNSGAITFDELKAGLRRYGSTLKDTEIRDLMEAADVDNSGTIDYSEFIAATIHLNKLEREEHLVSAFQYFDKDGSGYITIDELQQSCIEHGMTDVFLEDIIKEVDQDNDGRIDYEEFVAMMQKGNAGVGRRTMKNSLNISMRDV |
| binds | Trx-His-CPK33 (protein) not shown |
